Measured values: article PMC6414520, “CryoEM structure of adenovirus type 3 fibre with desmoglein 2 shows an unusual mode of receptor engagement” (Nature Communications, 2019)

B1: human adenovirus type 3 fibre knob (HAd3K), fibre residues 124-319, co-expressed with DSG2 EC2-EC3 (domain or fragment)
chain: NSIALKNNTLWTGPKPEANCIIEYGKQNPDSKLTLILVKNGGIVNGYVTLMGASDYVNTLFKNKNVSINVELYFDATGHILPDSSSLKTDLELKYKQTADFSARGFMPSTTAYPFVLPNAGTHNENYIFGQCYYKASDGALFPLEVTVMLNKRLPDSRTSYVMTFLWSLNAGLAPETTQATLITSPFTFSYIREDD
notes: fibre protein of human adenovirus type 3, knob, fibre residues 124-319; Trimer; also called HAd3 fibre knob; HAdK3; source: E. coli Rosetta(DE3)pLysS, pETDuet, co-expressed with EC2-EC3, complex purified (Ni-NTA, SEC)

How the values were obtained:
[1] = target: human adenovirus type 3 fibre knob (HAd3K), fibre residues 124-319, co-expressed with DSG2 EC2-EC3 (human adenovirus type 3) (UniProt P04501); assay: cryo-EM structure; complex co-expressed in E. coli and co-purified (Ni-NTA, SEC); 150 mM NaCl, 3 mM CaCl2, 10 mM Tris-Cl pH 8.0; Volta phase plate; particles with one or two EC2-EC3 modules per knob trimer sorted by classification
[2] = target: the molecule itself; assay: as above

Molecule | stoichiometry N (DSG2 per knob trimer) [1] | stoichiometry N (receptor per knob trimer) [1] | stoichiometry N [2]
human desmoglein 2 EC2-EC3 domains (DSG2 residues 100-337), co-expressed with HAd3K in E. coli (domain or fragment) | 2 | 1 | –
B1 | – | – | 3
